Experiment in all cases: EMSA
Details in all cases: EMSA: 100 pM RNA, 10 mM Tris, 100 mM NaCl, 0.1 mM EDTA, 0.01 mg/mL tRNA, 50 ug/mL heparin, 0.01% IGEPAL CA630, room temperature, 3 h; pH not stated

In data set [1] the target is IMP2 KH3 VL MUT (KH34) (UniProt Q9Y6M1).
For data set [2], the target named is IMP2 KH4 VL MUT (KH34) (UniProt Q9Y6M1).
For data set [3], the target named is IMP2 KH34 double VL MUT (UniProt Q9Y6M1).

pKd: −log10 of the molar value.

IMP2 KH3 VL MUT (KH34), sequence (Q9Y6M1 425-581): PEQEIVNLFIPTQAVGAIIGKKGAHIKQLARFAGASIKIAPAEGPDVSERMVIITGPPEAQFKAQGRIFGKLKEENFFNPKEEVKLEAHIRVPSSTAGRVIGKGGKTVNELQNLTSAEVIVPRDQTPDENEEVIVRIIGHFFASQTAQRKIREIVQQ
IMP2 KH4 VL MUT (KH34), sequence (Q9Y6M1 whole entry): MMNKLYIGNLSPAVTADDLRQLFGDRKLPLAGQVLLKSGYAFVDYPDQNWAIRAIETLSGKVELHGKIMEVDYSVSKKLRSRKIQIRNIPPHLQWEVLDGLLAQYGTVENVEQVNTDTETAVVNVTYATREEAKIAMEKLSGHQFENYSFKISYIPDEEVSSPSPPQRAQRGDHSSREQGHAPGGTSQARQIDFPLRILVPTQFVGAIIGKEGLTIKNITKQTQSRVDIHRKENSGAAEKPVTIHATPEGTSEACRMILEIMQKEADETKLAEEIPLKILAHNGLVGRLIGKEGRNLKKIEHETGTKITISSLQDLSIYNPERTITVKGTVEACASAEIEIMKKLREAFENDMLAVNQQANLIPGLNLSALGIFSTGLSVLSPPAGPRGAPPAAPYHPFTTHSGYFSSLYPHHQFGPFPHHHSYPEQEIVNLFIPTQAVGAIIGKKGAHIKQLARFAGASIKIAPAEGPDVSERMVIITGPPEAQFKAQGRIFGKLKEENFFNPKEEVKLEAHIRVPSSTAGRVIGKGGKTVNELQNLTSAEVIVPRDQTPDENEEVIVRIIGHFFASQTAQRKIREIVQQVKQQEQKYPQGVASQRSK
IMP2 KH34 double VL MUT, sequence (Q9Y6M1 whole entry): as above

Regarding “ACCGGACUGUUACCAACACCCACACCCC [C28 beta-actin zipcode WT]”, the figures for the pKd in data set [1], in data set [2] and in data set [3] were 8.14, 6.46 and 7.58, respectively.
